Reference: paper PMC13534707, “Vps1 drives membrane constriction and fission necessary for endosomal protein sorting” (The EMBO Journal, 2026)
Residue numbers refer to the chain shown, from its start. In names and notes the source's numbering stands.

What was measured:
[1] = biological target: Vps1(ΔInsB) (S. cerevisiae) (UniProt P21576); test: SEC-MALS; purified Vps1 (~0.32 mg/ml) on Superose 6 10/300 GL, 20 mM HEPES pH 7.5, 150 mM NaCl, room temperature; self-association in solution
[2] = biological target: the molecule itself; test: as above

Molecule: Vps1(ΔInsB) (from UniProt P21576 1-535; P21576 613-704) (enzyme)
- stoichiometry N [1]: 2

B1: Vacuolar protein sorting-associated protein 1 (Vps1), wild type, recombinant (enzyme, S. cerevisiae, UniProt P21576 1-704, looked up)
chain: MDEHLISTINKLQDALAPLGGGSQSPIDLPQITVVGSQSSGKSSVLENIVGRDFLPRGTGIVTRRPLVLQLINRRPKKSEHAKVNQTANELIDLNINDDDKKKDESGKHQNEGQSEDNKEEWGEFLHLPGKKFYNFDEIRKEIVKETDKVTGANSGISSVPINLRIYSPHVLTLTLVDLPGLTKVPVGDQPPDIERQIKDMLLKYISKPNAIILSVNAANTDLANSDGLKLAREVDPEGTRTIGVLTKVDLMDQGTDVIDILAGRVIPLRYGYIPVINRGQKDIEHKKTIREALENERKFFENHPSYSSKAHYCGTPYLAKKLNSILLHHIRQTLPEIKAKIEATLKKYQNELINLGPETMDSASSVVLSMITDFSNEYAGILDGEAKELSSQELSGGARISYVFHETFKNGVDSLDPFDQIKDSDIRTIMYNSSGSAPSLFVGTEAFEVLVKQQIRRFEEPSLRLVTLVFDELVRMLKQIISQPKYSRYPALREAISNQFIQFLKDATIPTNEFVVDIIKAEQTYINTAHPDLLKGSQAMVMVEEKLHPRQVAVDPKTGKPLPTQPSSSKAPVMEEKSGFFGGFFSTKNKKKLAALESPPPVLKATGQMTERETMETEVIKLLISSYFSIVKRTIADIIPKALMLKLIVKSKTDIQKVLLEKLYGKQDIEELTKENDITIQRRKECKKMVEILRNASQIVSSV
notes: Vps1, S. cerevisiae; the Vps1 gene amplified from genomic DNA and cloned into pET15b; A TEV site follows the N-terminal 6xHis tag; also called WT; wild-type Vps1; source: bacterially expressed, T7 Express (NEB), purified (Strep-trap HP or Streptactin XT)
- binding result [2]: binds

B2: Vps1(G436D) (enzyme, S. cerevisiae, UniProt P21576 1-704, looked up)
chain: B1 chain with G436D
notes: Vps1, S. cerevisiae, with G436D made by site-directed mutagenesis of the pET15b construct; Same tags as m1; source: bacterially expressed, T7 Express (NEB), purified (Strep-trap HP or Streptactin XT)
- stoichiometry N [2]: 2

B3: Vps1(Δ4F) (enzyme, S. cerevisiae, UniProt P21576 1-704, looked up)
chain: MDEHLISTINKLQDALAPLGGGSQSPIDLPQITVVGSQSSGKSSVLENIVGRDFLPRGTGIVTRRPLVLQLINRRPKKSEHAKVNQTANELIDLNINDDDKKKDESGKHQNEGQSEDNKEEWGEFLHLPGKKFYNFDEIRKEIVKETDKVTGANSGISSVPINLRIYSPHVLTLTLVDLPGLTKVPVGDQPPDIERQIKDMLLKYISKPNAIILSVNAANTDLANSDGLKLAREVDPEGTRTIGVLTKVDLMDQGTDVIDILAGRVIPLRYGYIPVINRGQKDIEHKKTIREALENERKFFENHPSYSSKAHYCGTPYLAKKLNSILLHHIRQTLPEIKAKIEATLKKYQNELINLGPETMDSASSVVLSMITDFSNEYAGILDGEAKELSSQELSGGARISYVFHETFKNGVDSLDPFDQIKDSDIRTIMYNSSGSAPSLFVGTEAFEVLVKQQIRRFEEPSLRLVTLVFDELVRMLKQIISQPKYSRYPALREAISNQFIQFLKDATIPTNEFVVDIIKAEQTYINTAHPDLLKGSQAMVMVEEKLHPRQVAVDPKTGKPLPTQPSSSKAPVMEEKTKNKKKLAALESPPPVLKATGQMTERETMETEVIKLLISSYFSIVKRTIADIIPKALMLKLIVKSKTDIQKVLLEKLYGKQDIEELTKENDITIQRRKECKKMVEILRNASQIVSSV
notes: Vps1, S. cerevisiae, lacking the phenylalanine-rich 4F motif (residues 579-587) of Insert B; Same tags as m1; source: bacterially expressed, T7 Express (NEB), purified (Strep-trap HP or Streptactin XT)
- stoichiometry N [2]: 4

B4: Vps1(Δ3K) (enzyme, S. cerevisiae, UniProt P21576 1-704, looked up)
chain: MDEHLISTINKLQDALAPLGGGSQSPIDLPQITVVGSQSSGKSSVLENIVGRDFLPRGTGIVTRRPLVLQLINRRPKKSEHAKVNQTANELIDLNINDDDKKKDESGKHQNEGQSEDNKEEWGEFLHLPGKKFYNFDEIRKEIVKETDKVTGANSGISSVPINLRIYSPHVLTLTLVDLPGLTKVPVGDQPPDIERQIKDMLLKYISKPNAIILSVNAANTDLANSDGLKLAREVDPEGTRTIGVLTKVDLMDQGTDVIDILAGRVIPLRYGYIPVINRGQKDIEHKKTIREALENERKFFENHPSYSSKAHYCGTPYLAKKLNSILLHHIRQTLPEIKAKIEATLKKYQNELINLGPETMDSASSVVLSMITDFSNEYAGILDGEAKELSSQELSGGARISYVFHETFKNGVDSLDPFDQIKDSDIRTIMYNSSGSAPSLFVGTEAFEVLVKQQIRRFEEPSLRLVTLVFDELVRMLKQIISQPKYSRYPALREAISNQFIQFLKDATIPTNEFVVDIIKAEQTYINTAHPDLLKGSQAMVMVEEKLHPRQVAVDPKTGKPLPTQPSSSKAPVMEEKSGFFGGFFSTKNLAALESPPPVLKATGQMTERETMETEVIKLLISSYFSIVKRTIADIIPKALMLKLIVKSKTDIQKVLLEKLYGKQDIEELTKENDITIQRRKECKKMVEILRNASQIVSSV
notes: Vps1, S. cerevisiae, lacking the lysine-rich 3K motif (residues 591-593) of Insert B; Same tags as m1; source: bacterially expressed, T7 Express (NEB), purified (Strep-trap HP or Streptactin XT)
- stoichiometry N [2]: 4
